Experimental findings from PMC10397247 are described below.

For assay [1], the target named is T1, 4H470-bH.
T1 chain: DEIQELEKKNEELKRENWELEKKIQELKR
As to the kind of experiment: two-hybrid library CCNG1.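 Also: natural log of median RNA to DNA barcode read ratio; higher means stronger binding.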

In assay [2] the target is T2, O7.
T2 chain: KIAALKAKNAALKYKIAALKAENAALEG
The experiment in a line: two-hybrid library CC0.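 Also: natural log of median RNA to DNA barcode read ratio; higher means stronger binding.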 As to conditions: mean of both orientations.

In assay [3] the target is T3, O5.
T3 chain: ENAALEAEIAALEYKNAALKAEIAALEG
The experiment in a line: two-hybrid library CC0.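 Also: natural log of median RNA to DNA barcode read ratio; higher means stronger binding.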 As to conditions: mean of both orientations.

The target of assay [4] is T4, O6.
T4 chain: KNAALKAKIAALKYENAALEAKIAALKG
As to the kind of experiment: two-hybrid library CC0.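 Also: natural log of median RNA to DNA barcode read ratio; higher means stronger binding.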 As to conditions: mean of both orientations.

Assay [5] deals with T5, O8.
T5 chain: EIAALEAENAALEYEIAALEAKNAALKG
As to the kind of experiment: two-hybrid library CC0.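 Also: natural log of median RNA to DNA barcode read ratio; higher means stronger binding.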 The following applies: mean of both orientations.

Assay [6] has as its target T6, O9.
T6 chain: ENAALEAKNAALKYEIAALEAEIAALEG
As to the kind of experiment: two-hybrid library CC0.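 Also: natural log of median RNA to DNA barcode read ratio; higher means stronger binding.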 The following applies: mean of both orientations.

In assay [7] the target is T7, O4.
T7 chain: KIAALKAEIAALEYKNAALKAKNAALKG
The experiment in a line: two-hybrid library CC0. The following applies: mean of both orientations.

The target in assay [8] is T8, O3.
T8 chain: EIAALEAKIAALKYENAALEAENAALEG
As to the kind of experiment: two-hybrid library CC0. The following applies: mean of both orientations.

The target in assay [9] is T9, O9-bA.
T9 chain: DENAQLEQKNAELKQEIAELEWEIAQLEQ
As to the kind of experiment: two-hybrid library CCNG1.

In assay [10] the target is T10, O4-bA.
T10 chain: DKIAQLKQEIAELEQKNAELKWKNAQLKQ
The experiment in a line: two-hybrid library CCNG1.

Assay [11] has as its target T11, O8-bA.
T11 chain: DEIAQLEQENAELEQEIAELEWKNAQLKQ
As to the kind of experiment: two-hybrid library CCNG1.

Assay [12] addresses T12, O5-bA.
T12 chain: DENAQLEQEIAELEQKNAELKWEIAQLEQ
As to the kind of experiment: two-hybrid library CCNG1.

Assay [13] deals with T13, O7-bA.
T13 chain: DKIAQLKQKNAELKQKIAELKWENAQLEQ
The experiment in a line: two-hybrid library CCNG1.

Assay [14] has as its target T14, O2-bA.
T14 chain: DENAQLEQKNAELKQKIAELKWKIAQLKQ
The experiment in a line: two-hybrid library CCNG1.

Assay [15] addresses T15, O3-bA.
T15 chain: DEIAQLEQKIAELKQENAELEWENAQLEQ
The experiment in a line: two-hybrid library CCNG1.

In assay [16] the target is T16, O6-bA.
T16 chain: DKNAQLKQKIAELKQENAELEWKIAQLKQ
The experiment in a line: two-hybrid library CCNG1.

In assay [17] the target is T17, 4H3666-AA.
T17 chain: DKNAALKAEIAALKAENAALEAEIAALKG
As to the kind of experiment: two-hybrid library CCmax. As to conditions: mean of both orientations.

For assay [18], the target named is T18, 4H3920-AA.
T18 chain: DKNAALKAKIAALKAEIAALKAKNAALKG
The experiment in a line: two-hybrid library CCmax. The following applies: mean of both orientations.

The target in assay [19] is T19, 4H656-AA.
T19 chain: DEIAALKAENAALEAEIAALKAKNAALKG
The experiment in a line: two-hybrid library CCmax. The following applies: mean of both orientations.

Assay [20] deals with T20, 4H1854-AA.
T20 chain: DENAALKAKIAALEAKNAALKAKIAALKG
The experiment in a line: two-hybrid library CCmax.

Assay [21] addresses T21, 4H2248-AA.
T21 chain: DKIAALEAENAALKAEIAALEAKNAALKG
The experiment in a line: two-hybrid library CCmax. As to conditions: mean of both orientations.

In assay [22] the target is T22, 4H971-AA.
T22 chain: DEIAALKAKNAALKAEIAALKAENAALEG
The experiment in a line: two-hybrid library CCmax. The following applies: mean of both orientations.

Assay [23] deals with T23, 4H478-AA.
T23 chain: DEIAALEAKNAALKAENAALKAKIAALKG
The experiment in a line: two-hybrid library CCmax. The following applies: mean of both orientations.

Assay [24] has as its target T24, 4H497-AA.
T24 chain: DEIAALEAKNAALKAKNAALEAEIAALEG
The experiment in a line: two-hybrid library CCmax. The following applies: mean of both orientations.

The target of assay [25] is T25, 4H3417-AA.
T25 chain: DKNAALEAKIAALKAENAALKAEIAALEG
As to the kind of experiment: two-hybrid library CCmax. As to conditions: mean of both orientations.

The target in assay [26] is T26, 4H3591-AA.
T26 chain: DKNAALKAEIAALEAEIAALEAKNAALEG
The experiment in a line: two-hybrid library CCmax. The following applies: mean of both orientations.

Assay [27] deals with T27, 4H2713-AA.
T27 chain: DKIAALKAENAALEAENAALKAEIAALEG
The experiment in a line: two-hybrid library CCmax. The following applies: mean of both orientations.

The target of assay [28] is T28, 4H3628-AA.
T28 chain: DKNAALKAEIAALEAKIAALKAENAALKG
As to the kind of experiment: two-hybrid library CCmax. As to conditions: mean of both orientations.

Assay [29] concerns the target T29, 4H3102-AA.
T29 chain: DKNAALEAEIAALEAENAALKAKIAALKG
As to the kind of experiment: two-hybrid library CCmax. The following applies: mean of both orientations.

Assay [30] addresses T30, 4H3029-AA.
T30 chain: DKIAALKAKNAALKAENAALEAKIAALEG
As to the kind of experiment: two-hybrid library CCmax. The following applies: mean of both orientations.

Assay [31] concerns the target T31, 4H2283-AA.
T31 chain: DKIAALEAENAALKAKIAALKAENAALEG
As to the kind of experiment: two-hybrid library CCmax. The following applies: mean of both orientations.

Assay [32] deals with T32, 4H2742-AA.
T32 chain: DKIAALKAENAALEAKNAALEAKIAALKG
As to the kind of experiment: two-hybrid library CCmax. The following applies: mean of both orientations.

Assay [33] has as its target T33, 4H3066-AA.
T33 chain: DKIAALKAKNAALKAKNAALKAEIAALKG
The experiment in a line: two-hybrid library CCmax. As to conditions: mean of both orientations.

Assay [34] addresses T34, 4H3121-AA.
T34 chain: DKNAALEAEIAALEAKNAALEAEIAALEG
The experiment in a line: two-hybrid library CCmax. The following applies: mean of both orientations.

For assay [35], the target named is T35, 4H675-AA.
T35 chain: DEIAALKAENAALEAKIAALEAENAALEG
As to the kind of experiment: two-hybrid library CCmax. The following applies: mean of both orientations.

Assay [36] addresses T36, 4H2948-AA.
T36 chain: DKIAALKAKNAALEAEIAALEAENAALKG
As to the kind of experiment: two-hybrid library CCmax. The following applies: mean of both orientations.

Assay [37] has as its target T37, 4H3709-AA.
T37 chain: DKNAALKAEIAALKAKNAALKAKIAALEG
As to the kind of experiment: two-hybrid library CCmax. As to conditions: mean of both orientations.

Assay [38] deals with T38, 4H3446-AA.
T38 chain: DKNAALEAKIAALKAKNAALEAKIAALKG
The experiment in a line: two-hybrid library CCmax. As to conditions: mean of both orientations.

Assay [39] deals with T39, 4H189-AA.
T39 chain: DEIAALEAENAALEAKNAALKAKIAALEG
As to the kind of experiment: two-hybrid library CCmax. The following applies: mean of both orientations.

Assay [40] concerns the target T40, 4H391-AA.
T40 chain: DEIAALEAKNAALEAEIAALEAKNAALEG
As to the kind of experiment: two-hybrid library CCmax. As to conditions: mean of both orientations.

In assay [41] the target is T41, 4H2991-AA.
T41 chain: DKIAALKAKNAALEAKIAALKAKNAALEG
As to the kind of experiment: two-hybrid library CCmax. As to conditions: mean of both orientations.

The target in assay [42] is T42, 4H3939-AA.
T42 chain: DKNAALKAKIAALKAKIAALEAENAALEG
The experiment in a line: two-hybrid library CCmax. As to conditions: mean of both orientations.

Assay [43] addresses T43, 4H428-AA.
T43 chain: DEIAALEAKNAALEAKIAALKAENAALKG
As to the kind of experiment: two-hybrid library CCmax. As to conditions: mean of both orientations.

B1: 4H470-bH (peptide)
chain: DEIQELEKKNEELKRENWELEKKIQELKR
B1: the interaction score in assay [1] worked out at 0.789.

B2: O3 (peptide)
chain: EIAALEAKIAALKYENAALEAENAALEG
Consider B2, for which the interaction score in assay [2] is -2.77; in [3], -2.78; in [4], -2.66; in assay [5] it was -2.58; in assay [6], -2.71; in [7], 1.48. For the same molecule, the interaction score in [8] is -2.75.

B3: O2-bA (peptide)
chain: DENAQLEQKNAELKQKIAELKWKIAQLKQ
Consider B3, for which the interaction score in assay [9] is 1; in assay [10], -0.35; in assay [11] it was 0.682; in assay [12] it was 0.59; in [13], -0.0715; in assay [14] it was -0.405. Moreover, the interaction score in [15] was -0.0372; in assay [16], -0.5.

B4: 4H1854-AA (peptide)
chain: DENAALKAKIAALEAKNAALKAKIAALKG
For B4, the interaction score is 1.68 in [17]; -1.51 in assay [18]; 0.553 in [19]; 0.401 in assay [20]; 1.14 in assay [21]; -2.3 in assay [22]. The interaction score in [23] was -1.16; in [24] it was -1.88; in [25], 1.7; in assay [26] it was -0.937; in assay [27], -0.843; in [28], -1.22. In addition, the interaction score is 0.389 in assay [29]; -0.674 in [30]; -0.597 in [31]; -1.53 in assay [32]; -1.5 in assay [33]; 1.28 in assay [34]. For the same molecule, the interaction score in [35] is 0.675; in [36], -0.756; in assay [37] it was -0.898; in [38], -1; in assay [39], -1.76; in [40], 0.189. Also, the interaction score in assay [41] is -1.61; in assay [42], -1.28; in assay [43] it was -0.746.
